The values that follow come from article PMC10978839.

A short description of data set [1]: confocal colocalisation with calreticulin/GM130; membrane trafficking. The following applies: glycan lost; control: SEMA7A-WT.
Data set [2] is described as follows: non-reducing vs reducing western blot. The conditions noted are these: glycan lost; control: SEMA7A-WT.
Data set [3] can be described thus: immunofluorescence intensity, HN6 and HN30. The conditions noted are these: glycan lost; control: untreated and O-Glycosidase-treated cells.
The nature of data set [4]: CHX chase immunoblot, turnover rate. The following applies: glycan lost; control: untreated (endogenous SEMA7A). (A western blot detects proteins with antibodies after separation by electrophoresis.)

B1: SEMA7A: N258Q (protein)
parent chain: MTPPPPGRAAPSAPRARVPGPPARLGLPLRLRLLLLLWAAAASAQGHLRSGPRIFAVWKGHVGQDRVDFGQTEPHTVLFHEPGSSSVWVGGRGKVYLFDFPEGKNASVRTVNIGSTKGSCLDKRDCENYITLLERRSEGLLACGTNARHPSCWNLVNGTVVPLGEMRGYAPFSPDENSLVLFEGDEVYSTIRKQEYNGKIPRFRRIRGESELYTSDTVMQNPQFIKATIVHQDQAYDDKIYYFFREDNPDKNPEAPLNVSRVAQLCRGDQGGESSLSVSKWNTFLKAMLVCSDAATNKNFNRLQDVFLLPDPSGQWRDTRVYGVFSNPWNYSAVCVYSLGDIDKVFRTSSLKGYHSSLPNPRPGKCLPDQQPIPTETFQVADRHPEVAQRVEPMGPLKTPLFHSKYHYQKVAVHRMQASHGETFHVLYLTTDRGTIHKVVEPGEQEHSFAFNIMEIQPFRRAAAIQTMSLDAERRKLYVSSQWEVSQVPLDLCEVYGGGCHGCLMSRDPYCGWDQGRCISIYSSERSVLQSINPAEPHKECPNPKPDKAPLQKVSLAPNSRYYLSCPMESRHATYSWRHKENVEQSCEPGHQSPNCILFIENLTAQQYGHYFCEAQEGSYFREAQHWQLLPEDGIMAEHLLGHACALAASLWLGVLPTLTLGLLVH
On to B1, for which the localisation_or_trafficking entry in data set [1] is given as “no change”.

B2: SEMA7A: N330Q (protein)
parent chain: MTPPPPGRAAPSAPRARVPGPPARLGLPLRLRLLLLLWAAAASAQGHLRSGPRIFAVWKGHVGQDRVDFGQTEPHTVLFHEPGSSSVWVGGRGKVYLFDFPEGKNASVRTVNIGSTKGSCLDKRDCENYITLLERRSEGLLACGTNARHPSCWNLVNGTVVPLGEMRGYAPFSPDENSLVLFEGDEVYSTIRKQEYNGKIPRFRRIRGESELYTSDTVMQNPQFIKATIVHQDQAYDDKIYYFFREDNPDKNPEAPLNVSRVAQLCRGDQGGESSLSVSKWNTFLKAMLVCSDAATNKNFNRLQDVFLLPDPSGQWRDTRVYGVFSNPWNYSAVCVYSLGDIDKVFRTSSLKGYHSSLPNPRPGKCLPDQQPIPTETFQVADRHPEVAQRVEPMGPLKTPLFHSKYHYQKVAVHRMQASHGETFHVLYLTTDRGTIHKVVEPGEQEHSFAFNIMEIQPFRRAAAIQTMSLDAERRKLYVSSQWEVSQVPLDLCEVYGGGCHGCLMSRDPYCGWDQGRCISIYSSERSVLQSINPAEPHKECPNPKPDKAPLQKVSLAPNSRYYLSCPMESRHATYSWRHKENVEQSCEPGHQSPNCILFIENLTAQQYGHYFCEAQEGSYFREAQHWQLLPEDGIMAEHLLGHACALAASLWLGVLPTLTLGLLVH
For B2, the localisation_or_trafficking result in data set [1] was “no change”.

B3: SEMA7A: N105Q (protein)
parent chain: MTPPPPGRAAPSAPRARVPGPPARLGLPLRLRLLLLLWAAAASAQGHLRSGPRIFAVWKGHVGQDRVDFGQTEPHTVLFHEPGSSSVWVGGRGKVYLFDFPEGKNASVRTVNIGSTKGSCLDKRDCENYITLLERRSEGLLACGTNARHPSCWNLVNGTVVPLGEMRGYAPFSPDENSLVLFEGDEVYSTIRKQEYNGKIPRFRRIRGESELYTSDTVMQNPQFIKATIVHQDQAYDDKIYYFFREDNPDKNPEAPLNVSRVAQLCRGDQGGESSLSVSKWNTFLKAMLVCSDAATNKNFNRLQDVFLLPDPSGQWRDTRVYGVFSNPWNYSAVCVYSLGDIDKVFRTSSLKGYHSSLPNPRPGKCLPDQQPIPTETFQVADRHPEVAQRVEPMGPLKTPLFHSKYHYQKVAVHRMQASHGETFHVLYLTTDRGTIHKVVEPGEQEHSFAFNIMEIQPFRRAAAIQTMSLDAERRKLYVSSQWEVSQVPLDLCEVYGGGCHGCLMSRDPYCGWDQGRCISIYSSERSVLQSINPAEPHKECPNPKPDKAPLQKVSLAPNSRYYLSCPMESRHATYSWRHKENVEQSCEPGHQSPNCILFIENLTAQQYGHYFCEAQEGSYFREAQHWQLLPEDGIMAEHLLGHACALAASLWLGVLPTLTLGLLVH
On to B3, for which the localisation_or_trafficking entry in data set [1] is “no change”.

B4: SEMA7A: 3NQ (protein)
parent chain: MTPPPPGRAAPSAPRARVPGPPARLGLPLRLRLLLLLWAAAASAQGHLRSGPRIFAVWKGHVGQDRVDFGQTEPHTVLFHEPGSSSVWVGGRGKVYLFDFPEGKNASVRTVNIGSTKGSCLDKRDCENYITLLERRSEGLLACGTNARHPSCWNLVNGTVVPLGEMRGYAPFSPDENSLVLFEGDEVYSTIRKQEYNGKIPRFRRIRGESELYTSDTVMQNPQFIKATIVHQDQAYDDKIYYFFREDNPDKNPEAPLNVSRVAQLCRGDQGGESSLSVSKWNTFLKAMLVCSDAATNKNFNRLQDVFLLPDPSGQWRDTRVYGVFSNPWNYSAVCVYSLGDIDKVFRTSSLKGYHSSLPNPRPGKCLPDQQPIPTETFQVADRHPEVAQRVEPMGPLKTPLFHSKYHYQKVAVHRMQASHGETFHVLYLTTDRGTIHKVVEPGEQEHSFAFNIMEIQPFRRAAAIQTMSLDAERRKLYVSSQWEVSQVPLDLCEVYGGGCHGCLMSRDPYCGWDQGRCISIYSSERSVLQSINPAEPHKECPNPKPDKAPLQKVSLAPNSRYYLSCPMESRHATYSWRHKENVEQSCEPGHQSPNCILFIENLTAQQYGHYFCEAQEGSYFREAQHWQLLPEDGIMAEHLLGHACALAASLWLGVLPTLTLGLLVH
For B4, the oligomerisation entry in data set [2] is reported as “no change”.

B5: SEMA7A: N602Q (protein)
parent chain: MTPPPPGRAAPSAPRARVPGPPARLGLPLRLRLLLLLWAAAASAQGHLRSGPRIFAVWKGHVGQDRVDFGQTEPHTVLFHEPGSSSVWVGGRGKVYLFDFPEGKNASVRTVNIGSTKGSCLDKRDCENYITLLERRSEGLLACGTNARHPSCWNLVNGTVVPLGEMRGYAPFSPDENSLVLFEGDEVYSTIRKQEYNGKIPRFRRIRGESELYTSDTVMQNPQFIKATIVHQDQAYDDKIYYFFREDNPDKNPEAPLNVSRVAQLCRGDQGGESSLSVSKWNTFLKAMLVCSDAATNKNFNRLQDVFLLPDPSGQWRDTRVYGVFSNPWNYSAVCVYSLGDIDKVFRTSSLKGYHSSLPNPRPGKCLPDQQPIPTETFQVADRHPEVAQRVEPMGPLKTPLFHSKYHYQKVAVHRMQASHGETFHVLYLTTDRGTIHKVVEPGEQEHSFAFNIMEIQPFRRAAAIQTMSLDAERRKLYVSSQWEVSQVPLDLCEVYGGGCHGCLMSRDPYCGWDQGRCISIYSSERSVLQSINPAEPHKECPNPKPDKAPLQKVSLAPNSRYYLSCPMESRHATYSWRHKENVEQSCEPGHQSPNCILFIENLTAQQYGHYFCEAQEGSYFREAQHWQLLPEDGIMAEHLLGHACALAASLWLGVLPTLTLGLLVH
Turning to B5, the localisation_or_trafficking result in data set [1] is on record as “no change”.

B6: SEMA7A: PNGase F (protein)
parent chain: MTPPPPGRAAPSAPRARVPGPPARLGLPLRLRLLLLLWAAAASAQGHLRSGPRIFAVWKGHVGQDRVDFGQTEPHTVLFHEPGSSSVWVGGRGKVYLFDFPEGKNASVRTVNIGSTKGSCLDKRDCENYITLLERRSEGLLACGTNARHPSCWNLVNGTVVPLGEMRGYAPFSPDENSLVLFEGDEVYSTIRKQEYNGKIPRFRRIRGESELYTSDTVMQNPQFIKATIVHQDQAYDDKIYYFFREDNPDKNPEAPLNVSRVAQLCRGDQGGESSLSVSKWNTFLKAMLVCSDAATNKNFNRLQDVFLLPDPSGQWRDTRVYGVFSNPWNYSAVCVYSLGDIDKVFRTSSLKGYHSSLPNPRPGKCLPDQQPIPTETFQVADRHPEVAQRVEPMGPLKTPLFHSKYHYQKVAVHRMQASHGETFHVLYLTTDRGTIHKVVEPGEQEHSFAFNIMEIQPFRRAAAIQTMSLDAERRKLYVSSQWEVSQVPLDLCEVYGGGCHGCLMSRDPYCGWDQGRCISIYSSERSVLQSINPAEPHKECPNPKPDKAPLQKVSLAPNSRYYLSCPMESRHATYSWRHKENVEQSCEPGHQSPNCILFIENLTAQQYGHYFCEAQEGSYFREAQHWQLLPEDGIMAEHLLGHACALAASLWLGVLPTLTLGLLVH
Regarding B6, the “other: immunofluorescence detection by antibody” value in data set [3] was “increases”.

B7: SEMA7A: N157Q (protein)
parent chain: MTPPPPGRAAPSAPRARVPGPPARLGLPLRLRLLLLLWAAAASAQGHLRSGPRIFAVWKGHVGQDRVDFGQTEPHTVLFHEPGSSSVWVGGRGKVYLFDFPEGKNASVRTVNIGSTKGSCLDKRDCENYITLLERRSEGLLACGTNARHPSCWNLVNGTVVPLGEMRGYAPFSPDENSLVLFEGDEVYSTIRKQEYNGKIPRFRRIRGESELYTSDTVMQNPQFIKATIVHQDQAYDDKIYYFFREDNPDKNPEAPLNVSRVAQLCRGDQGGESSLSVSKWNTFLKAMLVCSDAATNKNFNRLQDVFLLPDPSGQWRDTRVYGVFSNPWNYSAVCVYSLGDIDKVFRTSSLKGYHSSLPNPRPGKCLPDQQPIPTETFQVADRHPEVAQRVEPMGPLKTPLFHSKYHYQKVAVHRMQASHGETFHVLYLTTDRGTIHKVVEPGEQEHSFAFNIMEIQPFRRAAAIQTMSLDAERRKLYVSSQWEVSQVPLDLCEVYGGGCHGCLMSRDPYCGWDQGRCISIYSSERSVLQSINPAEPHKECPNPKPDKAPLQKVSLAPNSRYYLSCPMESRHATYSWRHKENVEQSCEPGHQSPNCILFIENLTAQQYGHYFCEAQEGSYFREAQHWQLLPEDGIMAEHLLGHACALAASLWLGVLPTLTLGLLVH
In the case of B7, the localisation_or_trafficking result in data set [1] is listed as “no change”.

B8: SEMA7A: tunicamycin (protein)
parent chain: MTPPPPGRAAPSAPRARVPGPPARLGLPLRLRLLLLLWAAAASAQGHLRSGPRIFAVWKGHVGQDRVDFGQTEPHTVLFHEPGSSSVWVGGRGKVYLFDFPEGKNASVRTVNIGSTKGSCLDKRDCENYITLLERRSEGLLACGTNARHPSCWNLVNGTVVPLGEMRGYAPFSPDENSLVLFEGDEVYSTIRKQEYNGKIPRFRRIRGESELYTSDTVMQNPQFIKATIVHQDQAYDDKIYYFFREDNPDKNPEAPLNVSRVAQLCRGDQGGESSLSVSKWNTFLKAMLVCSDAATNKNFNRLQDVFLLPDPSGQWRDTRVYGVFSNPWNYSAVCVYSLGDIDKVFRTSSLKGYHSSLPNPRPGKCLPDQQPIPTETFQVADRHPEVAQRVEPMGPLKTPLFHSKYHYQKVAVHRMQASHGETFHVLYLTTDRGTIHKVVEPGEQEHSFAFNIMEIQPFRRAAAIQTMSLDAERRKLYVSSQWEVSQVPLDLCEVYGGGCHGCLMSRDPYCGWDQGRCISIYSSERSVLQSINPAEPHKECPNPKPDKAPLQKVSLAPNSRYYLSCPMESRHATYSWRHKENVEQSCEPGHQSPNCILFIENLTAQQYGHYFCEAQEGSYFREAQHWQLLPEDGIMAEHLLGHACALAASLWLGVLPTLTLGLLVH
B8: the degradation_or_half_life result in data set [4] was “increases”.
